Three molecules from PMC4457943 can be followed below.

Common to all, as to test: FRET or BRET
For assay [1], the target named is MHC class II glycoprotein (HLA-DR) (human (endogenous in Kit225/IL-9R and MT-2)).
Assay [2] addresses MHC class I heavy chain (human (endogenous in Kit225/IL-9R and MT-2)) (UniProt P04439).
Assay [3] has as its target MHC class II glycoprotein (HLA-DR) (human (endogenous in Kit225/IL-9R and MT-2)). This is another data set of the same source.
Assay [4] addresses MHC class I heavy chain (human (endogenous in Kit225/IL-9R and MT-2)) (UniProt P04439). This is another data set of the same source.

Where two headings read alike, the source gives them in different places.

For the molecule “IL-2 receptor α chain (IL-2Rα) (from UniProt P01589 22-272)”, the FRET efficiency E (%) was 21.9% in assay [1], 21.7% in assay [2], 11.9% in assay [3] and 22.5% in assay [4].

B1: interleukin-9 receptor α-subunit (IL-9Rα), stably transfected in Kit225/IL-9R cells (receptor)
chain: SVTGEGQGPRSRTFTCLTNNILRIDCHWSAPELGQGSSPWLLFTSNQAPGGTHKCILRGSECTVVLPPEAVLVPSDNFTITFHHCMSGREQVSLVDPEYLPRRHVKLDPPSDLQSNISSGHCILTWSISPALEPMTTLLSYELAFKKQEEAWEQAQHRDHIVGVTWLILEAFELDPGFIHEARLRVQMATLEDDVVEEERYTGQWSEWSQPVCFQAPQRQGPLIPPWGWPGNTLVAVSIFLLLTGPTYLLFKLSPRVKRIFYQNVPSPAMFFQPLYSVHNGNFQTWMGAHGAGVLLSQDCAGTPQGALEPCVQEATALLTCGPARPWKSVALEEEQEGPGTRLPGNLSSEDVLPAGCTEWRVQTLAYLPQEDWAPTSLTRPAPPDSEGSRSSSSSSSSNNNNYCALGCYGGWHLSALPGNTQSSGPIPALACGLSCDHQGLETQQGVAWVLAGHCQRPGLHEDLQGMLLPSVLSKARSWTF
Consider B1, for which the FRET efficiency E (%) in assay [1] amounted to 15.9%; in assay [2] it was 17.2%.

B2: interleukin-9 receptor α-subunit (IL-9Rα), endogenous in MT-2 cells (receptor)
chain: SVTGEGQGPRSRTFTCLTNNILRIDCHWSAPELGQGSSPWLLFTSNQAPGGTHKCILRGSECTVVLPPEAVLVPSDNFTITFHHCMSGREQVSLVDPEYLPRRHVKLDPPSDLQSNISSGHCILTWSISPALEPMTTLLSYELAFKKQEEAWEQAQHRDHIVGVTWLILEAFELDPGFIHEARLRVQMATLEDDVVEEERYTGQWSEWSQPVCFQAPQRQGPLIPPWGWPGNTLVAVSIFLLLTGPTYLLFKLSPRVKRIFYQNVPSPAMFFQPLYSVHNGNFQTWMGAHGAGVLLSQDCAGTPQGALEPCVQEATALLTCGPARPWKSVALEEEQEGPGTRLPGNLSSEDVLPAGCTEWRVQTLAYLPQEDWAPTSLTRPAPPDSEGSRSSSSSSSSNNNNYCALGCYGGWHLSALPGNTQSSGPIPALACGLSCDHQGLETQQGVAWVLAGHCQRPGLHEDLQGMLLPSVLSKARSWTF
On to B2, for which the figures for the FRET efficiency E (%) in assay [1] and in assay [2] were 10.2% and 13.5%, respectively.
